Results taken from US20100272817A1.
Square brackets hold non-standard residues; d marks the D form. Ends that are not written are not given here.

Target: cholesterol ester hydrolase (CEH)

in vivo macrophage cholesterol export ([3H]-cholesterol in plasma 5 hours after peptide injection): 2.5 fold
B1: retro-inversal D amino acid peptide … (D-form; SEQ ID NO:3) (peptide)
peptide: [dR][dF][dH][dN][dP][dD][dK]G[dS][dR]G[dW][dE][dN][dA][dA][dQ][dD][dA]
modifications: also: retro-inverso peptide
